Data from doi:10.1101/2020.05.24.113621 (bioRxiv, 2020).

Target: the molecule itself
Assay: crystal structure

GNYNVF [hnRNPA2 mutant core segment GNYNVF (residues 286-291 with D290V)]
binding result: binds
